# Assay results from patent US20240327497A1.
# Where a chain is given by its changes, count along the chain named. In names and notes the source's numbering stands. Several values for one entry are separate records, joined by “and”; a condition that tells them apart may be missing. Identical values can stand only once.
# B1: canine IgGB Fc (CH2-CH3) T286L with N-terminal SASA tag (Fc fusion, part only; not given: SASA tag, not shown: another chain or arm of the molecule; small tags and cut ends)
# Fc: APEMLGGPSVFIFPPKPKDTLLIARTPEVTCVVVDLDPEDPEVQISWFVDGKQMQLAKTQPREEQFNGTYRVVSVLPIGHQDWLKGKQFTCKVNNKALPSPIERTISKARGQAHQPSVYVLPPSREELSKNTVSLTCLIKDFFPPDIDVEWQSNGQQEPESKYRTTPPQLDEDGSYFLYSKLSVDKSRWQRGDTFICAVMHEALHNHYTQESLSHSPGK
# B2: canine IgGB Fc (CH2-CH3) T286W with N-terminal SASA tag (Fc fusion, part only; not given: SASA tag, not shown: another chain or arm of the molecule; small tags and cut ends)
# Fc: B1 Fc with L56W
# B3: canine IgGB Fc (CH2-CH3) T286F with N-terminal SASA tag (Fc fusion, part only; not given: SASA tag, not shown: another chain or arm of the molecule; small tags and cut ends)
# Fc: B1 Fc with L56F
# B4: canine IgGB Fc (CH2-CH3) Y436H with N-terminal SASA tag (Fc fusion, part only; not given: SASA tag, not shown: another chain or arm of the molecule; small tags and cut ends)
# Fc: B1 Fc with L56T, Y208H
# B5: canine IgGB Fc (CH2-CH3) T286Y with N-terminal SASA tag (Fc fusion, part only; not given: SASA tag, not shown: another chain or arm of the molecule; small tags and cut ends)
# Fc: B1 Fc with L56Y
# B6: anti-NGF canine IgGB antibody, Fc variant A426H + Y436H (antibody, part only; not given: anti-NGF variable domains and light chain, not shown: another chain or arm of the molecule; small tags and cut ends)
# Fc: B1 Fc with L56T, A198H, Y208H
# B7: anti-NGF canine IgGB antibody, Fc variant A426H (antibody, part only; not given: Anti-NGF variable domains, not shown: another chain or arm of the molecule; small tags and cut ends)
# Fc: B1 Fc with L56T, A198H
# B8: anti-NGF canine IgGB antibody, Fc variant A426H + T286Y (antibody, part only; not given: anti-NGF variable domains and light chain, not shown: another chain or arm of the molecule; small tags and cut ends)
# Fc: B1 Fc with L56Y, A198H
# B9: anti-NGF canine IgGB antibody, Fc variant A426Y + Y436H (antibody, part only; not given: anti-NGF variable domains and light chain, not shown: another chain or arm of the molecule; small tags and cut ends)
# Fc: B1 Fc with L56T, A198Y, Y208H
# B10: anti-NGF canine IgGB antibody, Fc variant A426Y + T286L (antibody, part only; not given: Anti-NGF variable domains, not shown: another chain or arm of the molecule; small tags and cut ends)
# Fc: B1 Fc with A198Y
# B11: anti-NGF canine IgGB antibody, Fc variant A426H + D312P (antibody, part only; not given: Anti-NGF variable domains, not shown: another chain or arm of the molecule; small tags and cut ends)
# Fc: B1 Fc with L56T, D82P, A198H
# B12: anti-NGF canine IgGB antibody, Fc variant A426Y (antibody, part only; not given: Anti-NGF variable domains, not shown: another chain or arm of the molecule; small tags and cut ends)
# Fc: B1 Fc with L56T, A198Y
# B13: anti-NGF canine IgGB antibody, Fc variant A426Y + T286L + Y436H (antibody, part only; not given: anti-NGF variable domains and light chain, not shown: another chain or arm of the molecule)
# Fc: B1 Fc with A198Y, Y208H
# B14: anti-NGF canine IgGB antibody, Fc variant A426Y + D312P (antibody, part only; not given: anti-NGF variable domains and light chain, not shown: another chain or arm of the molecule; small tags and cut ends)
# Fc: B1 Fc with L56T, D82P, A198Y
# B15: anti-NGF canine IgGB antibody, Fc variant A426H + T286L (antibody, part only; not given: Anti-NGF variable domains, not shown: another chain or arm of the molecule; small tags and cut ends)
# Fc: B1 Fc with A198H
# B16: canine IgGB Fc (CH2-CH3) T256A with N-terminal SASA tag (Fc fusion, part only; not given: SASA tag, not shown: another chain or arm of the molecule; small tags and cut ends)
# Fc: B1 Fc with T26A, L56T
# B17: canine IgGB Fc (CH2-CH3) G309A with N-terminal SASA tag (Fc fusion, part only; not given: SASA tag, not shown: another chain or arm of the molecule; small tags and cut ends)
# Fc: B1 Fc with L56T, G79A
# B18: canine IgGB Fc (CH2-CH3) T286A with N-terminal SASA tag (Fc fusion, part only; not given: SASA tag, not shown: another chain or arm of the molecule; small tags and cut ends)
# Fc: B1 Fc with L56A
# B19: canine IgGB Fc (CH2-CH3) Q311A with N-terminal SASA tag (Fc fusion, part only; not given: SASA tag, not shown: another chain or arm of the molecule; small tags and cut ends)
# Fc: B1 Fc with L56T, Q81A
# B20: canine IgGB Fc (CH2-CH3) Q285A with N-terminal SASA tag (Fc fusion, part only; not given: SASA tag, not shown: another chain or arm of the molecule; small tags and cut ends)
# Fc: B1 Fc with Q55A, L56T
# B21: canine IgGB Fc (CH2-CH3) D378A with N-terminal SASA tag (Fc fusion, part only; not given: SASA tag, not shown: another chain or arm of the molecule; small tags and cut ends)
# Fc: B1 Fc with L56T, D148A
# B22: canine IgGB Fc (CH2-CH3) I308A with N-terminal SASA tag (Fc fusion, part only; not given: SASA tag, not shown: another chain or arm of the molecule; small tags and cut ends)
# Fc: B1 Fc with L56T, I78A
# B23: canine IgGB Fc (CH2-CH3) P307A with N-terminal SASA tag (Fc fusion, part only; not given: SASA tag, not shown: another chain or arm of the molecule; small tags and cut ends)
# Fc: B1 Fc with L56T, P77A
# B24: canine IgGB Fc (CH2-CH3) K315A with N-terminal SASA tag (Fc fusion, part only; not given: SASA tag, not shown: another chain or arm of the molecule; small tags and cut ends)
# Fc: B1 Fc with L56T, K85A
# B25: canine IgGB Fc (CH2-CH3) T250A with N-terminal SASA tag (Fc fusion, part only; not given: SASA tag, not shown: another chain or arm of the molecule; small tags and cut ends)
# Fc: B1 Fc with T20A, L56T
# B26: anti-NGF canine IgGB antibody, Fc variant N434R + T286L (antibody, part only; not given: Anti-NGF variable domains, not shown: another chain or arm of the molecule)
# Fc: B1 Fc with N206R
# B27: anti-NGF canine IgGB antibody, Fc variant A426Y + N434R (antibody, part only; not given: anti-NGF variable domains and light chain, not shown: another chain or arm of the molecule; small tags and cut ends)
# Fc: B1 Fc with L56T, A198Y, N206R
# B28: anti-NGF canine IgGB antibody, Fc variant N434R + Y436H (antibody, part only; not given: Anti-NGF variable domains, not shown: another chain or arm of the molecule)
# Fc: B1 Fc with L56T, N206R, Y208H
# B29: anti-NGF canine IgGB antibody, Fc variant N434R + T286Y (antibody, part only; not given: anti-NGF variable domains and light chain, not shown: another chain or arm of the molecule)
# Fc: B1 Fc with L56Y, N206R
# B30: anti-NGF canine IgGB antibody, Fc variant N434R (antibody, part only; not given: Anti-NGF variable domains, not shown: another chain or arm of the molecule)
# Fc: B1 Fc with L56T, N206R
# B31: anti-NGF canine IgGB antibody, Fc variant N434R + D312P (antibody, part only; not given: anti-NGF variable domains and light chain, not shown: another chain or arm of the molecule)
# Fc: B1 Fc with L56T, D82P, N206R
# B32: anti-NGF canine IgGB antibody, Fc variant N434Y (antibody, part only; not given: Anti-NGF variable domains, not shown: another chain or arm of the molecule)
# Fc: B1 Fc with L56T, N206Y
# B33: canine IgGB Fc (CH2-CH3) YTE variant (L252Y/A254T/T256E) with N-terminal SASA tag (Fc fusion, part only; not given: SASA tag, not shown: another chain or arm of the molecule; small tags and cut ends)
# Fc: B1 Fc with L22Y, A24T, T26E, L56T
# B34: canine IgGB Fc (CH2-CH3) N434H with N-terminal SASA tag (Fc fusion, part only; not given: SASA tag, not shown: another chain or arm of the molecule; small tags and cut ends)
# Fc: B1 Fc with L56T, N206H
# Target: canine FcRn (FcRn large subunit with canine beta-2-microglobulin) (canine)
# Assay: SPR pH 6.0, SASA-Fc captured on BSA, FcRn 200 nM
Kd,koff,kon,Binder
174 nM and 208 nM,0.0565 s⁻¹ and 0.103 s⁻¹,324000 M⁻¹ s⁻¹ and 496000 M⁻¹ s⁻¹,B1
127 nM and 118 nM,0.0982 s⁻¹ and 0.112 s⁻¹,774000 M⁻¹ s⁻¹ and 945000 M⁻¹ s⁻¹,B2
157 nM and 185 nM,0.0527 s⁻¹ and 0.061 s⁻¹,336000 M⁻¹ s⁻¹ and 330000 M⁻¹ s⁻¹,B3
447 nM and 532 nM,0.134 s⁻¹ and 0.141 s⁻¹,300000 M⁻¹ s⁻¹ and 265000 M⁻¹ s⁻¹,B4
69.8 nM and 116 nM,,410000 M⁻¹ s⁻¹ and 1.11e+06 M⁻¹ s⁻¹,B5

# Target: canine FcRn (FcRn large subunit with canine beta-2-microglobulin) (canine)
# Assay: SPR pH 5.9, IgG coupled to C1 chip, 1:1 kinetic fit
Kd [nM],koff [s⁻¹],kon [M⁻¹ s⁻¹],Binder
161,0.13,808000,B6
115,0.142,1.24e+06,B7
21.3,0.0286,1.34e+06,B8
57.7,0.0608,1.06e+06,B9
42.3,0.0436,1.03e+06,B10
40.5,0.0532,1.31e+06,B11
129,0.113,878000,B12
7.26,0.0412,5.67e+06,B13
45.1,0.0497,1.1e+06,B14
35.8,0.0417,1.16e+06,B15

# Target: canine FcRn (FcRn large subunit with canine beta-2-microglobulin) (canine)
# Assay: SPR pH 5.5, SASA-Fc captured on BSA, FcRn 400 nM
Kd,WT KD Avg/Variant KD,koff,kon,Binder
447 nM and 298 nM,1.27 and 1.9,0.166 s⁻¹,,B16
245 nM and 294 nM,2.31 and 1.92,,,B17
464 nM and 569 nM,1.22 and 0.99,0.196 s⁻¹ and 0.304 s⁻¹,422000 M⁻¹ s⁻¹ and 533000 M⁻¹ s⁻¹,B18
368 nM and 370 nM,1.54 and 1.53,0.894 s⁻¹ and 0.496 s⁻¹,2.43e+06 M⁻¹ s⁻¹ and 1.34e+06 M⁻¹ s⁻¹,B19
341 nM and 257 nM,1.66 and 2.2,0.112 s⁻¹,,B20
673 nM and 592 nM,0.84 and 0.96,0.183 s⁻¹ and 0.181 s⁻¹,272000 M⁻¹ s⁻¹ and 306000 M⁻¹ s⁻¹,B21
472 nM and 563 nM,1.2 and 1,0.169 s⁻¹ and 0.194 s⁻¹,357000 M⁻¹ s⁻¹ and 345000 M⁻¹ s⁻¹,B22
325 nM and 338 nM,1.74 and 1.67,1.23 s⁻¹,,B23
422 nM and 548 nM,1.34 and 1.03,0.134 s⁻¹,,B24
335 nM and 328 nM,1.69 and 1.72,,,B25

# Target: canine FcRn (FcRn large subunit with canine beta-2-microglobulin) (canine)
# Assay: SPR pH 6.0, IgG coupled to CM5, FcRn 50-800 nM
Kd [nM],koff [s⁻¹],kon [M⁻¹ s⁻¹],Binder
2270,0.202,88700,B6
1040,0.124,119000,B7
255,0.0409,160000,B8
507,0.0777,153000,B9
173,0.031,180000,B26
327,0.0559,171000,B10
376,0.0547,145000,B11
288,0.0591,206000,B27
1130,0.134,119000,B12
320,0.0838,262000,B28
421,0.0577,137000,B14
464,0.069,149000,B15
93.7,0.0221,236000,B29
497,0.107,216000,B30
197,0.048,244000,B31
70.8,0.0181,255000,B32

# Target: canine FcRn (FcRn large subunit with canine beta-2-microglobulin) (canine)
# Assay: SPR pH 5.5, SASA-Fc captured on BSA, FcRn 100-800 nM
Kd [nM],koff [s⁻¹],kon [M⁻¹ s⁻¹],Binder
184,0.046,250000,B33
247,0.102,411000,B34

# Target: canine FcRn (FcRn large subunit with canine beta-2-microglobulin) (canine)
# Assay: SPR pH 7.4, FcRn coupled at high density, IgG 400 nM
Kd [nM],koff [s⁻¹],kon [M⁻¹ s⁻¹],Binder
940,0.128,136000,B8
134,,,B26
1120,0.092,82300,B10
722,0.156,217000,B11
129,,,B27
382,0.255,666000,B28
2900,0.171,58900,B14
1600,0.13,81200,B15
81.2,,3.4e+08,B29
234,,8.25e+08,B30
104,,4.95e+08,B31
80.2,0.23,2.87e+06,B32

# Target: canine FcRn (FcRn large subunit with canine beta-2-microglobulin) (canine)
# Assay: SPR pH 6.0, SASA-Fc captured on BSA, FcRn 100-800 nM
Kd [nM],koff [s⁻¹],kon [M⁻¹ s⁻¹],Binder
210,0.0659,314000,B33
777,0.253,325000,B1
565,0.195,345000,B2
616,0.19,309000,B3
386,0.145,375000,B4
632,0.162,256000,B5
